The results in this text go back to PMC6608616 (IUCrJ, 2019).

For the test, the target named is Tryptophan synthase β subunit (TrpB) from Streptococcus pneumoniae (Streptococcus pneumoniae TIGR4, UniProt Q97P32 4-407, PLP covalently attached to Lys91). Put plainly: crystal structure. The note with it: both partners purified.

B1: Tryptophan synthase α subunit (TrpA) from Streptococcus pneumoniae (enzyme)
chain: MPKTLTEKLNAIKAAGKGIFVPYIMAGDHEKGLDGLAETIHFLEDLGVSAIEVGIPFSDPVADGPVIEEAGLRSLAHGTSTQALVETLKTIETEIPLVIMTYFNPLFQYGVENFVKDLADTAVKGLIIPDLPHEHANFVEPFLANTDIALIPLVSLTTGIERQKELIEGAEGFIYAVAINGVTGKSGNYRADLDKHLAQLHQVADIPVLTGFGVSSQADLERFNAVSDGVIVGSKIVKALHQGEPIQDFIRQAVAYQK
For the molecule B1, the binding result is “binds”.
